In patent publication US20210363269A1 (ALX ONCOLOGY, published 2021) one finds binding result and koff data, which are given here for seven molecules.

Test [1] deals with T1, human SIRPγ isoform 1 (human, UniProt Q9P1W8 29-147).
T1 construct: also called SIRPg; sirpg
Kind of test: SPR. The essentials: (§1)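 Dissociation rate constants (koff) were measured on a ProteOn XPR36 instrument by Langmuir model fitting. Antibody clones in scFv-Fc format were captured from pre-filtered culture media onto a GLC chip with about 4000 RU of amine-coupled anti-human IgG Fc. SIRP analytes ran in PBS pH 7.4 with 0.01% Tween-20 at 25° C, and the model used was 1:1, applied to data double-referenced against interspot and buffer-blank responses.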

Test [2] deals with T2, cynomolgus SIRP-α D1 domain (cyno1) (cynomolgus monkey, UniProt Q5TFQ8 30-148 (human entry), limits assumed).
T2 chain: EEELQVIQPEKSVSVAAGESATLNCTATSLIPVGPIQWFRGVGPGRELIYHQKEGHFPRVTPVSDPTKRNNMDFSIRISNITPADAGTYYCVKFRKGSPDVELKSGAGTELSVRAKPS
Kind of test: SPR. The procedure, abridged: as §1
A general note: Surface plasmon resonance follows binding to a sensor surface in real time, without labels.

In test [3] the target is T3, C57BL/6 mouse SIRP-α D1 domain (mouse (C57BL/6 strain), UniProt P97797 32-148).
T3 sequence: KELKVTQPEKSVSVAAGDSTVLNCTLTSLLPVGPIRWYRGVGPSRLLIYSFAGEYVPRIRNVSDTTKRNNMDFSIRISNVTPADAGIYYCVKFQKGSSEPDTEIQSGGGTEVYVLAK
Kind of test: SPR. The essentials:
as §1

The target in test [4] is T4, human SIRP-α v1 D1 domain (human, UniProt P78324 31-149).
T4 construct: also called human v1
Kind of test: SPR, Langmuir fit. The essentials:
as §1
T4 sequence (P78324 31-149 limits assumed): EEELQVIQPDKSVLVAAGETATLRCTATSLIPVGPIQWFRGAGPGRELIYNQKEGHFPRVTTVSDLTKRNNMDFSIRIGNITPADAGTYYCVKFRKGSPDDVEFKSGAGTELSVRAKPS

For test [5], the target named is T5, human SIRPβ isoform 1 (human, UniProt O00241 30-148).
T5 construct: also called SIRPb; sirpb1
T5 sequence (O00241 30-148 limits assumed): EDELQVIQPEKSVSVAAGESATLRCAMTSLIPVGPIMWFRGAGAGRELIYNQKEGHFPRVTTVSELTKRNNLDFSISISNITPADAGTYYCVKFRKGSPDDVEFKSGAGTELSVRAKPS
Kind of test: SPR, Langmuir fit. The essentials:
as §1

In test [6] the target is T6, human SIRP-α v2 D1 domain (human).
T6 construct: also called human v2
Kind of test: SPR, Langmuir fit. The procedure, abridged: as §1
T6 sequence (chain, as listed by the source limits assumed): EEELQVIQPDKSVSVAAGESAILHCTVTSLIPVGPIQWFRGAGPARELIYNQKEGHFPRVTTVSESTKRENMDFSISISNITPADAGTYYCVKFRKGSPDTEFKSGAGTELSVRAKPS

Test [7] has as its target T7, high affinity SIRP-α D1 variant CV1-3.
T7 chain: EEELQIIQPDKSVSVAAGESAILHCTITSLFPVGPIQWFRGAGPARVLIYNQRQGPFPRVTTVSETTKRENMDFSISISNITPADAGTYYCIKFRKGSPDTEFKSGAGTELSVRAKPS
Kind of test: SPR, Langmuir fit. The procedure, abridged: as §1

Test [8] addresses T5, human SIRPβ isoform 1. Kind of test: SPR. The essentials: as §1
The target of test [9] is T8, mouse 129 SIRP-α D1 domain (mouse (129 strain), UniProt P97797 32-150).
T8 construct: also called m129
T8 chain: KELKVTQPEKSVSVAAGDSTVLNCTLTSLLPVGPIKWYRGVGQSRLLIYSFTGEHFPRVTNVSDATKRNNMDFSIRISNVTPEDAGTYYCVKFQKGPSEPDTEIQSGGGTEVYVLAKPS
Kind of test: SPR. The essentials: as §1

The target of test [10] is T9, NOD mouse SIRP-α D1 domain (mouse (NOD strain)).
T9 chain: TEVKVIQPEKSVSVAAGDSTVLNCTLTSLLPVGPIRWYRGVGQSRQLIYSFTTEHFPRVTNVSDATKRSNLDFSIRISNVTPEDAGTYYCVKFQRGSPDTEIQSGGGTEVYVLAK
Kind of test: SPR. The essentials: as §1

For test [11], the target named is T10, cynomolgus SIRP-α D1 domain (cyno2) (cynomolgus monkey, UniProt Q5TFQ8 30-148 (human entry), limits assumed).
T10 chain: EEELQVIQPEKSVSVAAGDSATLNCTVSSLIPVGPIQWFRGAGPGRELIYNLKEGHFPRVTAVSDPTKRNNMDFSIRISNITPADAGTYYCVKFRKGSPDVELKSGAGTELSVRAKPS
Kind of test: SPR, Langmuir fit. The procedure, abridged: as §1

The target of test [12] is T2, cynomolgus SIRP-α D1 domain (cyno1). Kind of test: SPR, Langmuir fit. The essentials: as §1
Test [13] addresses T1, human SIRPγ isoform 1. Kind of test: SPR, Langmuir fit. The procedure, abridged:
as §1

The target in test [14] is T11, human SIRP-α v1 D1 domain (human, UniProt P78324 31-149).
T11 construct: biotinylated and captured on avidin in the ELISA; also called human v1
Kind of test: SPR, antibody immobilised on GLC chip. The procedure, abridged: (§2)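 On a ProteOn XPR36 biosensor, Protein A-purified antibodies were amine-coupled to a GLC chip at about ~1000 RU after dilution to 80 nM in 10 mM sodium acetate pH 4.5. SIRP analytes at 100, 33, 11, 3.7, 1.2 and 0 nM were then injected one-shot in PBS pH 7.4 containing 0.01% Tween-20 at 25° C, with 90 s of association at 100 μL/min and 1200 s of dissociation. The dissociation constant (KD) was calculated as kd/ka from a global Langmuir fit of double-referenced data.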
T11 sequence (P78324 31-149 limits assumed): as the sequence (P78324 31-149 limits assumed) above

Test [15] addresses T12, human SIRP-α v2 D1 domain (human).
T12 construct: biotinylated and captured on avidin in the ELISA; also called human v2
Kind of test: SPR, antibody immobilised on GLC chip. The procedure, abridged: as §2

T1 sequence (Q9P1W8 29-147 limits assumed): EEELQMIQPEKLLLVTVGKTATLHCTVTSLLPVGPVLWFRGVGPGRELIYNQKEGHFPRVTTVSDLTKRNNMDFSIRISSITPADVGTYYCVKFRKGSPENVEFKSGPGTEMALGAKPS

B1: S209 (scFv, V domains shown)
VH: DVQLVESGGAVVRPGESLRLSCKASGFTFTNFAMSWVRQAPGEGLEWVSGISGSDDTTYYADSVKGRFTISRDNSESTLYLQMNSLRAEDTAVYYCVKDSTVSWNTFFDYWGLGTLVTVSS
VL: ALTQPASVSANLGGTVKITCSGGYGSDDGSSSYYGWYQQKSPGSAPVILIYWDDKRPSDIPSRFSGSTSGSTTTLTITGVQAEDEAVYFCGTYDTSSGAIFGAGTTLTVL
As for B1, the binding result in test [1], in test [2] and in [3] was “no binding (tested: Koff > 5 × 10^3 (legend))” in each case. The koff worked out at 0.000659 s⁻¹ in test [4], 6.54e-05 s⁻¹ in test [5], 0.00401 s⁻¹ in test [6] and 0.00245 s⁻¹ in test [7].

B2: S173 (scFv, V domains shown)
VH: DVQLVESGGGVVRPGESLRLSCAASGFAFSDHDMSWVRQGPGEGLEWVAGISLRGGVTWYADSVKGRFTISRDNSKNTLYLRLFSLRTEDTAIYYCARESWNTFFDYWGLGTLVTVSS
VL: EIVLTQSPGTLSLSPGETATLSCRASQNVRSNLAWYQQKPGQAPRLLIYDASSRATGIPDRFSGSGSGTDFTLTISSLQSEDFAVYYCQQYGNGPPLTFGGGTKVEIK
Turning to B2, the binding result in test [8], in test [9], in test [1], in test [2] and in test [3] was “no binding (tested: Koff > 5 × 10^3 (legend))” throughout. Also, the figures for the koff in test [4], in test [6] and in test [7] were 0.00112 s⁻¹, 0.00504 s⁻¹ and 0.00137 s⁻¹, respectively.

B3: S174 (scFv, V domains shown)
VH: DVQLVESGGGVVRPGESLRLSCAASGFTFSDHDMSWVRQGPGEGLEWVAGISLRGGVTWYADSVKGRFTISRDNSKNTLYLRLFSLRTEDTAIYYCARESWNTFFDYWGLGTLVTVSS
VL: EIVLTQSPGTLSLSPGETATLSCRASQNVRSNLAWYQQKPGQAPRLLIYDASSRATGIPDRFSGSGSGTDFTLTISSLQSEDFAVYYCQQYGNGPPLTFGGGTKVEIK
In the case of B3, the binding result in test [8], in [9], in test [1], in test [2] and in test [3] was “no binding (tested: Koff > 5 × 10^3 (legend))” in each case. The koff in test [4] turned out to be 0.00143 s⁻¹; in [6], 0.00399 s⁻¹; in [7] it was 0.00189 s⁻¹.

B4: S191 (scFv, V domains shown)
VH: DVQLVESGGGVVRPGESLRLSCAASGFSFSSYAMNWVRQAPGEGLEWVSRINSGGGGTDYAESVKGRFTISRDNSENTLYLQMNSLRAEDTAVYYCAKQYDWNGFFDYWGLGALVTVSS
VL: ETVLTQSPATLSVSPGERATLSCRASQTVGSKLAWHQQKPGQAPRLLIYDATNRATGIPDRFSGSGSGTDFTLTISGLQTEDSAVYYCQQYYYWPPYRFGGGTKVEIK
notes: also called clone 191
Take B4: the binding result in [9], in test [3] and in [10] was “no binding (tested: Koff > 5 × 10^3 (legend))” throughout. Also, the koff in test [4] amounted to 6.67e-05 s⁻¹; in [5], 1.01e-05 s⁻¹; in [11], 1.38e-05 s⁻¹; in [6], 3.53e-05 s⁻¹; in [7], 0.000295 s⁻¹; in [12], 5.54e-05 s⁻¹.

B5: S198 (scFv, V domains shown)
VH: DVQLVESGGGVVRPGESLRLSCAASGFSFSSHAMNWVRQAPGEGLEWVSRINSGGGGTDYAESVKGRFTISRDNSENTLYLQMNSLRAEDTAVYYCAKQYDWNGFFDYWGLGALVTVSS
VL: ETVLTQSPATLSVSPGERATLSCRASQTVGSKLAWHQQKPGQAPRLLIYDATNRATGIPDRFSGSGSGTDFTLTISSLQTEDSAVYYCQQYYYWPPYRFGGGTKVEIK
Regarding B5, the binding result in test [9], in test [3] and in test [10] was “no binding (tested: Koff > 5 × 10^3 (legend))” in each case. Besides, the koff turned out to be 3.67e-05 s⁻¹ in test [4]; 4.72e-05 s⁻¹ in test [5]; 7.73e-05 s⁻¹ in test [11]; 4.95e-05 s⁻¹ in [6]; 0.000787 s⁻¹ in [7]; 8.34e-05 s⁻¹ in test [12].

B6: S132 (scFv, V domains shown)
VH: DVQLVESGGGVVRPGESLRLSCAASGFSFRSYAMNWVRQAPGEGLEWVSRINSGGGGTDYADSVKGRFTISRDNSKNTLYLQMNSLRAEDTAVYYCAKQYDWNSFFDYWGLGALVTVSS
VL: ETVLTQSPATLSVSPGERATLSCRASQTVGSKLAWHQQKPGQAPRLLIYDASNRATGIPDRFSGSGSGTDFTLTISSPQTEDSAVYYCQQYYYWPPYRFGGGTKVEIK
On to B6, for which the binding result in [9], in [3] and in test [10] was “no binding (tested: Koff > 5 × 10^3 (legend))” each time. The koff in [4] worked out at 3.34e-05 s⁻¹; in test [5], 1.01e-05 s⁻¹; in test [11], 7.12e-05 s⁻¹; in test [6] it was 2.06e-05 s⁻¹; in test [13] it was 1.05e-05 s⁻¹; in [7], 7.95e-05 s⁻¹. In test [12], the koff turned out to be 4.28e-05 s⁻¹.

B7: 135 wt/wt_M34L (antibody, human IgG1, V domains shown)
VH: DVQLVESGGGVVRPGESLRLSCAASGFSFSIYALSWVRQAPGEGLEWVSTIGADDTYYADSVKGRFTISRDNSKNTLYLQMNSLRAEDTAVYYCAKDSTVGWSGDFFDYWGLGTLVTVSS
VL: EIVLTQSPATLSVSPGERVTFSCRASQNVRSDIAWYQQKPGQAPRLLIYAASSRDTGIPDRFSGSGSGTDFTLTISSLQSEDFGVYYCQQYYDWPPFTFGGGTKVEIK
notes: human IgG1 with L234A, L235A, G237A, N297A
As for B7, the binding result in test [14] and in [15] was “binds” in each case.

Broadly, the koff is the rate constant with which the complex falls apart. Lower therefore signals a long-lived complex.
